The target in the experiment is Cav3.2 calcium channel α-subunit, full length, human (human, UniProt O95180 1-2353). Briefly: cell-based or functional assay.
Cav3.2 calcium channel α-subunit, full length, human, sequence (O95180 whole entry): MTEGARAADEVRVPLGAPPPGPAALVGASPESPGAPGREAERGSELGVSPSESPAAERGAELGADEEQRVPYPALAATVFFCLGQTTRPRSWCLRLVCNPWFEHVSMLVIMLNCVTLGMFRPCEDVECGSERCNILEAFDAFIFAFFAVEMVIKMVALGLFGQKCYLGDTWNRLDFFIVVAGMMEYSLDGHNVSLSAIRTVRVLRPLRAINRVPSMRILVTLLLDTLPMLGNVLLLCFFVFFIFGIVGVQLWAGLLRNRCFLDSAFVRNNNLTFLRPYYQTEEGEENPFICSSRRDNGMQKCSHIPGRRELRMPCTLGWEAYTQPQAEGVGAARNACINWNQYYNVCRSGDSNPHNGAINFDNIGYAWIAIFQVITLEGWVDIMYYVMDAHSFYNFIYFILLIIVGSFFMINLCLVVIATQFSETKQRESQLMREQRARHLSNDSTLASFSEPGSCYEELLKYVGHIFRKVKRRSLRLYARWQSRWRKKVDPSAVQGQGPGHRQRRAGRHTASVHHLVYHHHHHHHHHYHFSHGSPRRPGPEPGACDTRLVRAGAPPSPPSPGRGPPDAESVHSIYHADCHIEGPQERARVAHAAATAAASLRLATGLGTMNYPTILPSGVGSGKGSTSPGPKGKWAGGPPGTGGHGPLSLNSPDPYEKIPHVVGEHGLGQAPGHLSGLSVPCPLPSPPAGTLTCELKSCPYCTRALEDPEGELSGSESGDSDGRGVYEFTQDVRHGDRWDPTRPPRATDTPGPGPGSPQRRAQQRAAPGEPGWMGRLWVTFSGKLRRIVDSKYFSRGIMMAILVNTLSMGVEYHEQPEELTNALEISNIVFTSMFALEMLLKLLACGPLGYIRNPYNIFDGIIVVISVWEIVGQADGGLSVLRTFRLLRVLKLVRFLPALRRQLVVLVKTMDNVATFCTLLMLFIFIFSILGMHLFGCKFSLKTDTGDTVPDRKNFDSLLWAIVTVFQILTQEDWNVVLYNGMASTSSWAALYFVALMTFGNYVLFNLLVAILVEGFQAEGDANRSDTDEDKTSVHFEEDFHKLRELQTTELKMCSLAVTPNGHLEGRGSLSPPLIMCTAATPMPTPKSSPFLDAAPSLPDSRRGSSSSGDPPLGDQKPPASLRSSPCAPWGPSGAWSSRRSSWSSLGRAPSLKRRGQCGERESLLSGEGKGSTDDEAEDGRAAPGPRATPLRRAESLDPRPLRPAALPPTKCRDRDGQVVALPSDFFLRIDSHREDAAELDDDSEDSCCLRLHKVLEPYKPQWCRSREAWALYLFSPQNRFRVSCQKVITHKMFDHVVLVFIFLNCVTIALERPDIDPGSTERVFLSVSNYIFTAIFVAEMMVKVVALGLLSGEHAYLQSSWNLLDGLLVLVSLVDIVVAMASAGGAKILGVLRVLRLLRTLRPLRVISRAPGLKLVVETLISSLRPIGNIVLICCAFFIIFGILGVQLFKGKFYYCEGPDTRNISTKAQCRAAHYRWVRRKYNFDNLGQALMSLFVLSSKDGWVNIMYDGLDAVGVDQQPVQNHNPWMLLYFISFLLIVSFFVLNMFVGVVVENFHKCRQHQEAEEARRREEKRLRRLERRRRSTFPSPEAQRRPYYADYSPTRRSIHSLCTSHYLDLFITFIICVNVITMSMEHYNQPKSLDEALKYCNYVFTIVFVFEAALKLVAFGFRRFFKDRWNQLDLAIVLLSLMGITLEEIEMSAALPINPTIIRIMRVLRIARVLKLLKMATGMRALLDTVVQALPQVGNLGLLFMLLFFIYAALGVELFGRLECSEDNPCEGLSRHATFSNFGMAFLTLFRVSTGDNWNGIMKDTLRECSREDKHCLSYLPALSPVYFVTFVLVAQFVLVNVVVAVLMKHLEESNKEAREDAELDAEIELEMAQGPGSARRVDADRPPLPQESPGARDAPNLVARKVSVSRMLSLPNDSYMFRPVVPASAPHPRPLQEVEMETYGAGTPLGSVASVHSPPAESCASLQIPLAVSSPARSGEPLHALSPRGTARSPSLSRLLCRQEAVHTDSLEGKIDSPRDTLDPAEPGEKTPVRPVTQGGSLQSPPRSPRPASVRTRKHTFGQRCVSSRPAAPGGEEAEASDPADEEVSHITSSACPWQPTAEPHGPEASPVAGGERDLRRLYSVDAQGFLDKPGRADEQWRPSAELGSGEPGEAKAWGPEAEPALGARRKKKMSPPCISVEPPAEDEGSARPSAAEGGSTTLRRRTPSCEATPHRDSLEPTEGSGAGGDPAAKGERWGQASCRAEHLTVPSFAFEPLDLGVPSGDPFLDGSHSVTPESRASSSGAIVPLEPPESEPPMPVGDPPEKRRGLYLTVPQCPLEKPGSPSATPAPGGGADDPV

B1: KCa1.1 potassium channel α-subunit, full length, myc-tagged, human (natural protein)
chain: not shown
Turning to B1, the “fold increase of the P2/P1 ratio of KCa1.1 current at +40 mV when P2 is preceded by a −30 mV prepulse, whole-cell patch clamp of tsA-201 cells coexpressing Cav3.2 and KCa1.1” value was determined as 2.7 fold.
